{
  "source": "patent US10584169B2",
  "about": "“Anti-CD73 antibodies and uses thereof” (I-MAB BIOPHARMA US LIMITED, dated 2020)",
  "key": {"[1]": {"target": "T1, Recombinant human CD73 protein (human)", "T1 chain": "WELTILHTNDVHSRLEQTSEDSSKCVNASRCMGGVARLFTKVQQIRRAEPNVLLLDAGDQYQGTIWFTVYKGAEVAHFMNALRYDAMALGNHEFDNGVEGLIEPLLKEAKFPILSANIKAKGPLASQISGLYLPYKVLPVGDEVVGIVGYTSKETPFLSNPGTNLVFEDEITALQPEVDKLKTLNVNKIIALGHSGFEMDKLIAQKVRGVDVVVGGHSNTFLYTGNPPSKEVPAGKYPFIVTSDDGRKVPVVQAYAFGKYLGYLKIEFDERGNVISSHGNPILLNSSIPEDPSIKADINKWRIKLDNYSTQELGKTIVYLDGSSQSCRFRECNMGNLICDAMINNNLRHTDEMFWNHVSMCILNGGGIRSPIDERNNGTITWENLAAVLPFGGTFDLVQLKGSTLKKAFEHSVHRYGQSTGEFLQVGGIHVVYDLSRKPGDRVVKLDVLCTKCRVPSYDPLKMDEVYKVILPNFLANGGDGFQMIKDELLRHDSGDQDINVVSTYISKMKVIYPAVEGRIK", "assay": "Biacore T200, antibody captured, recombinant human CD73 as analyte, 1:1 model", "method": "FIG. 3 plots the binding kinetics of 101-Mu and mAb1 with recombinant human CD73 (recombinant human CD73 was set as an analyte with serial concentrations (100, 50, 25, 12.5, 6.25, 3.125 nM)). The binding kinetics assay of antibody to antigen was performed using Biacore T200 system through a human antibody capture approach. The […] were immobilized on CM5 sensor chip according to the manufactory's instruction. The test antibody was injected and captured by the immobilized anti-human Fc IgG. And then serial concentrations of the antigen was individually injected, and the binding profile was recorded for each concentration antigen analyte, respectively. The assay system was regenerated by injection of 10 mM Glycine-HCl pH 1.5 for 30 seconds. The running buffer was HBS-EP+ (10 mM HEPES, pH 7.4, 150 mM NaCl, 3 mM EDTA and 0.05% P20). The assay temperature was 25° C., and the association and dissociation time were 180 and 600 seconds, respectively."}, "[2]": {"target": "T2, Human CD73 on the cell surface (human)", "T2 chain": "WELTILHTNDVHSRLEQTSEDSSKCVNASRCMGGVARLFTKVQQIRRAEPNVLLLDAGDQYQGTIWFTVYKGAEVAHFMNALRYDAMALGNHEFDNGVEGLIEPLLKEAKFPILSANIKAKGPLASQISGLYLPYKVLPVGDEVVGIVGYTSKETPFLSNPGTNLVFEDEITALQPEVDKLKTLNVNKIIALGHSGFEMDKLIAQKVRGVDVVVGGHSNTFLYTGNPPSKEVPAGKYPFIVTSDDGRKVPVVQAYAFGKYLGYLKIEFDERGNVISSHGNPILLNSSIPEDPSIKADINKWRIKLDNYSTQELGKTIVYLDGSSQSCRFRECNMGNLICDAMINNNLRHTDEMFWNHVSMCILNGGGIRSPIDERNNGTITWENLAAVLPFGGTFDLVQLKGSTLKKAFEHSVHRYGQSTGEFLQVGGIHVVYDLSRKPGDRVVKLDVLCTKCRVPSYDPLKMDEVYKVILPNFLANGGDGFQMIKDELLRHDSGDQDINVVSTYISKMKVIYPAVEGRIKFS"}, "[3]": {"target": "T1, Recombinant human CD73 protein"}, "[4]": {"target": "T1, Recombinant human CD73 protein", "assay": "ELISA, plate-coated recombinant human CD73"}, "[5]": {"target": "T2, Human CD73 on the cell surface", "assay": "flow cytometry on SK-OV-3 cells"}, "[6]": {"target": "T2, Human CD73 on the cell surface"}, "[7]": {"target": "T2, Human CD73 on the cell surface", "assay": "flow cytometry on SK-OV-3 cells", "method": "Human ovarian cancer cell line (SK-OV-3 cells) which endogenously expressed human CD73 on the surface were stained with different concentrations of IgG control, chimeric anti-CD73 (101-Mu-Chimeric, or 101-Chi) and humanized anti-CD73 antibodies (Hu101-25 and Hu101-28) at […] for 30 mins. Then, the cells were washed with PBS three times, followed by incubation with APC-labeled anti-human Fc specific antibody (Invitrogen) at 4° C. for 30 mins. Binding was measured using an FACSCanto (Becton-Dickinson), and the results are presented in FIG. 8 (see also the table below)."}, "[8]": {"target": "T1, Recombinant human CD73 protein"}, "[9]": {"target": "T1, Recombinant human CD73 protein", "assay": "Biacore T200, antibody captured by anti-human Fc IgG, antigen as analyte, 1:1 model", "method": "For the binding assay, the Biacore T200 system was used through human antibody capture approach. The anti-human Fc IgG were immobilized on CM5 sensor chip according to the manufactory's instruction. The test antibody was injected and captured by the immobilized anti-human Fc IgG. And then serial concentrations of antigen was individually injected, and the binding profile was recorded for each concentration antigen analyte, respectively. The assay system was regenerated by injection of 10 mM Glycine-HCl pH 1.5 for 30 seconds. The running buffer was HBS-EP+ (10 mM HEPES, pH 7.4, 150 mM NaCl, 3 mM EDTA and 0.05% P20). The assay temperature was 25° C., and the association and dissociation time were 180 and 600 seconds, respectively."}, "[10]": {"target": "T2, Human CD73 on the cell surface"}, "[11]": {"target": "T1, Recombinant human CD73 protein"}, "[12]": {"target": "T1, Recombinant human CD73 protein", "assay": "ELISA with recombinant human CD73 (2 µg/ml)"}},
  "note": "Where two headings read alike, the source gives them in different places.",
  "data": [
    {"binder": "101-Mu (antibody, V domains shown) VH: DVQLQESGPGLVKPSQSLSLTCSVTGYSITSGYYWNWIRQFPGNKLEWMGYINYGGSNGYNPSLKSRISITRDTSKNQFFLKLNSVTTEDTATYYCARDYDAYYEALDDWGQGTSVTVSS VL: QIVLSQSPAILSASPGEKVTMTCRASSRVNYMHWYQQKPGSSPKPWISATSNLASGVPARFSGSGSGTSYSLTISRVETEDAATYYCQQWSSNPPTFGGGTKLEIK", "values": [
      {"measurement": "Kd", "setting": "[1]", "value": 0.421, "unit": "nM"},
      {"measurement": "koff", "setting": "[1]", "value": "3.42e-05", "unit": "s⁻¹"},
      {"measurement": "kon", "setting": "[1]", "value": 81300, "unit": "M⁻¹ s⁻¹"},
      {"measurement": "IC50 of inhibition of cellular CD73 enzyme activity on SK-OV-3 cells (CellTiter-Glo luminescence)", "setting": "[2]", "value": 4.62, "unit": "nM"},
      {"measurement": "IC50 of inhibition of CD73 enzymatic activity (CellTiter-Glo luminescence, residual CD73 activity)", "setting": "[3]", "value": 3.89, "unit": "nM"},
      {"measurement": "EC50", "setting": "[4]", "value": 0.08, "unit": "nM"},
      {"measurement": "EC50", "setting": "[5]", "value": 0.54, "unit": "nM"}
    ]},
    {"binder": "101-Mu chimera (antibody, V domains shown) VH: DVQLQESGPGLVKPSQSLSLTCSVTGYSITSGYYWNWIRQFPGNKLEWMGYINYGGSNGYNPSLKSRISITRDTSKNQFFLKLNSVTTEDTATYYCARDYDAYYEALDDWGQGTSVTVSS VL: QIVLSQSPAILSASPGEKVTMTCRASSRVNYMHWYQQKPGSSPKPWISATSNLASGVPARFSGSGSGTSYSLTISRVETEDAATYYCQQWSSNPPTFGGGTKLEIK", "values": [
      {"measurement": "IC50 (nM), inhibition of cellular CD73 enzyme activity on SK-OV-3 cells", "setting": "[6]", "value": 1.82, "unit": "nM"},
      {"measurement": "Max. Inhibition (%), cellular CD73 enzyme activity on SK-OV-3 cells", "setting": "[6]", "value": 100, "unit": "%"},
      {"measurement": "EC50", "setting": "[7]", "value": 1.35, "unit": "nM"},
      {"measurement": "IC50 (nM), inhibition of recombinant human CD73 enzymatic activity", "setting": "[8]", "value": 4.25, "unit": "nM"},
      {"measurement": "Max. Inhibition (%), recombinant human CD73 enzymatic activity", "setting": "[8]", "value": 98, "unit": "%"}
    ]},
    {"binder": "Hu101-25 (antibody, V domains shown) VH: EVQLQESGPGLVKPSETLSLTCAVSGYSISSGYYWNWIRQPPGKGLEWIGYINYGGSNGYNPSLKSRVTISRDTSKNQFSLKLSSVTAADTAVYYCARDYDAYYEALDDWGQGTTVTVSS VL: EIVLSQSPATLSLSPGERATLSCRASSRVNYMHWYQQKPGQSPRPWISATSNLASGVPARFSGSGSGTSYTLTISSLEPEDFAVYYCQQWSSNPPTFGGGTKVEIK", "values": [
      {"measurement": "Kd", "setting": "[9]", "value": 0.747, "unit": "nM"},
      {"measurement": "koff", "setting": "[9]", "value": "5.51e-05", "unit": "s⁻¹"},
      {"measurement": "kon", "setting": "[9]", "value": 73700, "unit": "M⁻¹ s⁻¹"},
      {"measurement": "IC50 (nM), inhibition of cellular CD73 enzyme activity on SK-OV-3 cells", "setting": "[6]", "value": 2.98, "unit": "nM"},
      {"measurement": "Max. Inhibition (%), cellular CD73 enzyme activity on SK-OV-3 cells", "setting": "[6]", "value": 100, "unit": "%"},
      {"measurement": "EC50", "setting": "[7]", "value": 2.38, "unit": "nM"},
      {"measurement": "IC50 (nM), inhibition of recombinant human CD73 enzymatic activity", "setting": "[8]", "value": 4.72, "unit": "nM"},
      {"measurement": "Max. Inhibition (%), recombinant human CD73 enzymatic activity", "setting": "[8]", "value": 99, "unit": "%"}
    ]},
    {"binder": "Hu101-28 (antibody, V domains shown) VH: EVQLQESGPGLVKPSETLSLTCAVSGYSITSGYYWNWIRQPPGKKLEWMGYINYGGSNGYNPSLKSRITISRDTSKNQFSLKLSSVTAADTAVYYCARDYDAYYEALDDWGQGTTVTVSS VL: EIVLSQSPATLSLSPGERATLSCRASSRVNYMHWYQQKPGQSPRPWISATSNLASGVPARFSGSGSGTSYTLTISSLEPEDFAVYYCQQWSSNPPTFGGGTKVEIK", "values": [
      {"measurement": "IC50 (nM), inhibition of cellular CD73 enzyme activity on SK-OV-3 cells", "setting": "[6]", "value": 2.52, "unit": "nM"},
      {"measurement": "Max. Inhibition (%), cellular CD73 enzyme activity on SK-OV-3 cells", "setting": "[6]", "value": 100, "unit": "%"},
      {"measurement": "IC50 of inhibition of cell-bound CD73 activity on MDA-MB-231 cells (CellTiter-Glo)", "setting": "[10]", "value": 8.21, "unit": "nM"},
      {"measurement": "IC50 of inhibition of cell-bound CD73 activity on SK-OV-3 cells (CellTiter-Glo)", "setting": "[10]", "value": 2.52, "unit": "nM"},
      {"measurement": "IC50 of inhibition of recombinant human CD73 activity (CellTiter-Glo)", "setting": "[11]", "value": 2.84, "unit": "nM"},
      {"measurement": "EC50", "setting": "[7]", "value": 1.35, "unit": "nM"},
      {"measurement": "IC50 (nM), inhibition of recombinant human CD73 enzymatic activity", "setting": "[8]", "value": 9.35, "unit": "nM"},
      {"measurement": "Max. Inhibition (%), recombinant human CD73 enzymatic activity", "setting": "[8]", "value": 98, "unit": "%"},
      {"measurement": "EC50", "setting": "[5]", "value": 0.67, "unit": "nM"},
      {"measurement": "EC50", "setting": "[12]", "value": 0.0887, "unit": "nM"}
    ]}
  ]
}
